# Measured values as given in the supplement of paper PMC10126150.
# ± gives the standard deviation of the averaged measurements.
# System: ATP
# Test: switch fluorescence ratio, 500 uM ATP over buffer (Cy3 cluster intensity, sum of 5 cycles each) (fold (ratio)); higher = stronger signal-on switching upon ATP binding; sequences stand for … in TCGTCGGCAGCGTCAGATGTGTATAAGAGACAGTTTTTTTTTTTTTTTTTTTTTTTTT…TC
# Conditions: aptamer strand: ATP DNA aptamer (quencher-CACCTGGGGGAGTATTGCGGAGGAAGG + anchor), 100 nM annealed; ATP concentration: 500 uM
# Method in brief: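 Between each of five buffer/ATP cycles, the flow-cell was stripped with NaOH and re-annealed. Each cycle imaged Cy3-labelled switching-strand clusters, annealed to 100 nM quencher-labelled ATP aptamer on a modified Illumina MiSeq flow-cell, first in selection buffer and then after 15 min with 500 uM ATP at 22 °C. The fluorescence ratio is summed target-cycle over summed buffer-cycle Cy3 intensity per cluster, averaged per switch-domain sequence, with clusters outside 100-1000 RFU excluded.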
# 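Also: ATP exposure 15 min at 22 °C before imaging.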
row,Sequence,switch fluorescence ratio
1,ATGGGGGTAG,1.01 ± 0.048
2,GGGTGAGAGG,0.9944 ± 0.0075
3,TTGGAGGGTT,0.992 ± 0.017
4,TTGAAGTTAC,1.111 ± 0.0072
5,GGTCAATCTA,0.946 ± 0.045
6,GTTGCTGATT,1.02 ± 0.04
7,TCGGACGGGG,1.03 ± 0.015
8,TTCAAAAAAA,0.97 ± 0.026
9,TTAAAGACGG,1.06 ± 0.11
10,TGGAAAGCCT,1.05 ± 0.1
11,AAGGGTAAAT,0.996 ± 0.033
12,TTTTCTTGGG,1.03 ± 0.071
13,GATATTATTC,1.05 ± 0.079
14,ATTTTCGTTG,0.9666 ± 0.0095
15,ATAATAGAGC,1 ± 0.023
16,GCGAGATGGG,0.9735 ± 0.0013
17,TAAGATGTAT,0.968 ± 0.031
18,AAGAGGGCTT,0.994 ± 0.016
19,GGCAGCAAGG,1.084 ± 0.0029
20,CGCTCCCATT,1.46 ± 0.024
21,GACCAGGGAT,1.088 ± 0.0031
22,TGTTGGGGGG,1.01 ± 0.057
23,GATGCGTATG,0.997 ± 0.02
24,TGGAGTAGAT,0.986 ± 0.038
25,CCTGGCTCAT,1.06 ± 0.037
26,ATTCATGTTG,0.996 ± 0.014

row,Sequence,switch fluorescence ratio
1,TTAAAAGAGA,1.04 ± 0.0028
2,TTGACCGATT,0.978 ± 0.041
3,TCCGCTTGAG,1.36 ± 0.016
4,ATTGGTCAAG,0.985 ± 0.039
5,AGTTGGGGAA,0.983 ± 0.031
6,ATACTAGGGG,1.01 ± 0.02
7,GGGTGACATT,0.997 ± 0.094
8,CGGGTAGGTA,1 ± 0.012
9,TTTTAGGCTC,1.03 ± 0.039
10,TCGCTAACGG,1.07 ± 0.018
11,TCAAAGTTGG,1.01 ± 0.022
12,GACACTCAGG,1.083 ± 0.0013
13,GAATCTTAAA,0.997 ± 0.026
14,ATGTTTTGTA,1 ± 0.0053
15,ATGGGCCGGG,0.9955 ± 0.0074
16,CATTTTTTTA,0.96084 ± 0.00082
17,GGGTGGGGGT,1.03 ± 0.018
18,TTGGAAGGGG,1.13 ± 0.24
19,GTGTTTTATT,1.01 ± 0.036
20,AATCAGTGTA,1 ± 0.051
21,CAAGACAGCT,1.02 ± 0.031
22,GGGGTTGTCG,0.989 ± 0.1
23,TAAGAACATT,1.03 ± 0.1
24,TCTGAAGGAG,1.01 ± 0.013
25,CTAGCCAATT,1.02 ± 0.016
26,TGGCTGGGGG,1.09 ± 0.1

row,Sequence,switch fluorescence ratio
1,GGGGGATTGT,1.02 ± 0.043
2,CGTTGTAGGA,0.999 ± 0.016
3,AATCAATTAC,1.123 ± 0.011
4,CAAATTGGAA,0.961 ± 0.043
5,ATAGGAGTGG,0.964 ± 0.053
6,TTAGGAGGGA,0.9949 ± 0.0064
7,TTCGTGGGGG,0.991 ± 0.015
8,ACTAGGCAAG,1.13 ± 0.018
9,CGGTGGGGAC,1.04 ± 0.13
10,GGGTGGTAAG,0.997 ± 0.051
11,GATTTAGGGA,0.995 ± 0.039
12,TCGAGGCGGG,1.18 ± 0.21
13,CGGGATCCAG,1.01 ± 0.0094
14,ATGGAACCTT,1.28 ± 0.34
15,GAGCGAGCTC,0.988 ± 0.021
16,TAGGAAGGAG,0.98 ± 0.06
17,GCCGTGTAGA,1.05 ± 0.021
18,CGATTCGAGG,1.03 ± 0.011
19,CCCCAAGACG,0.997 ± 0.011
20,TGCGCTTGTC,0.974 ± 0.082
21,CAGGAAGGGG,1 ± 0.032
22,AGTTTGGACA,0.997 ± 0.015
23,ATAGTTGGGG,1.02 ± 0.045
24,GGAGTTGAGG,0.98147 ± 0.00093
25,TGGATAAAGT,0.985 ± 0.013
26,CGGCTATGTT,0.9712 ± 0.0027

row,Sequence,switch fluorescence ratio
1,GCGCGTAGGC,1 ± 0.021
2,AGAGTTATGC,1.022 ± 0.01
3,AATTTAGTTT,0.978 ± 0.026
4,ACGCTTTACC,1.89 ± 0.11
5,GACGTATATG,0.973 ± 0.048
6,TCCCATTTGG,1.03 ± 0.072
7,TCGTAGAATA,1.01 ± 0.032
8,GTGGTAAACG,1 ± 0.029
9,CGGCTGGGCT,0.988 ± 0.024
10,TGCAGATTTC,0.9978 ± 0.0088
11,ACTGTAACGG,1.19 ± 0.034
12,GCATGCTGTC,0.983 ± 0.019
13,GTGTTATAGG,1 ± 0.026
14,TGGGACCCAT,1.02 ± 0.055
15,AGGCCGGGGT,1.01 ± 0.055
16,ATTACAATAG,1.095 ± 0.0077
17,ACTGTGGGGA,1.01 ± 0.013
18,ACGGATGTTG,1.01 ± 0.059
19,CTGGGTTCCT,1.02 ± 0.024
20,TTTGAGGTCC,1 ± 0.07
21,GGATTTTGTT,0.998 ± 0.031
22,TCTCGGCATT,1.46 ± 0.23
23,GGATTATATT,1.0205 ± 0.00083
24,ATGCTATGGT,0.987 ± 0.013
25,GGCCTAAATA,0.998 ± 0.014
26,GAATCATACA,1.05 ± 0.074

row,Sequence,switch fluorescence ratio
1,AGGGGAGAAC,0.9758 ± 0.0086
2,AGGTAGCACA,1.056 ± 0.0036
3,CTAGGGGCGT,0.979 ± 0.019
4,CCGATTAATA,1.34 ± 0.028
5,GTGAGGGTTT,0.9758 ± 0.005
6,CATAAATCAA,0.9925 ± 0.006
7,ATAAGGGGAG,0.999 ± 0.027
8,CACTAGAGGT,1.03 ± 0.06
9,CCGGAGAGTT,1.58 ± 0.11
10,AATGCTAATA,0.952 ± 0.011
11,GCGGGGGTG,1.01 ± 0.013
12,TACCTGCAGC,1.12 ± 0.064
13,TTGCGGTGTG,1 ± 0.024
14,GTGGTGGGAC,0.972 ± 0.042
15,GCGTCGAAGG,0.981 ± 0.047
16,TCCCTTTCGA,1.21 ± 0.063
17,TTTGATTGAA,0.975 ± 0.03
18,TTTCGCATGA,1.223 ± 0.006
19,TCCTTGATCC,1.02 ± 0.089
20,CGCGGGAAGG,1.02 ± 0.036
21,CGTGACGGTA,1.042 ± 0.0014
22,GCCGCAGCTA,3.05 ± 0.15
23,CCGCAGGGGT,3.1 ± 2.8
24,CGAAAATTAA,1 ± 0.047
25,GAGGAGGAAT,1.01 ± 0.017
26,GAAGTGTGAA,1 ± 0.022

row,Sequence,switch fluorescence ratio
1,ATTTTGGGTT,1 ± 0.022
2,GGTACGGATC,1.03 ± 0.018
3,GGGGGTAGTT,1 ± 0.032
4,TTCAGCTGAG,0.9861 ± 0.0091
5,CCGTAGAGTT,1.29 ± 0.031
6,TTTGAGTATT,0.992 ± 0.047
7,TGTATTAGTA,0.949 ± 0.0089
8,TGAAATTAGT,1.01 ± 0.013
9,GAGAACAGTG,1.02 ± 0.041
10,TAGGTCTAGT,0.98706 ± 0.0005
11,ATTGGAAGGC,0.967 ± 0.017
12,ACAGGGTGCA,1.03 ± 0.052
13,GGGCTGTAAG,0.997 ± 0.04
14,TGCGAGGCGT,0.997 ± 0.021
15,GAGAGATTAT,0.9787 ± 0.002
16,GTAATTGGGT,0.986 ± 0.015
17,GGGGATTATT,0.991 ± 0.036
18,TTTTTTCCGA,1.02 ± 0.046
19,TTTGGCACGC,1.11 ± 0.04
20,AAAAGATTTT,1.06 ± 0.14
21,AGAAGAGCTT,1.011 ± 0.0024
22,GTTTTACGTC,0.981 ± 0.047
23,GTTAGCCGCT,1.03 ± 0.014
